B1: Ma08_p22790.1: snakin antimicrobial protein, Musa acuminata (protein, listed as Musa acuminata)
chain: RISLAPTAQPGNPLGPTPQPIKFPMYGATPGSLQPQECSGRCAGRCSATAYKKPCMFFCQKCCAKCLCVPPGTYGNKQVCPCYNNWKTKRGGPKCP
B2: Ma06_p09450.1: snakin antimicrobial protein, Musa acuminata (protein, listed as Musa acuminata)
chain: ADSAYCKSKCKVRCAKAGVMDRCLYYCGMCCEECKCVPSGTYGNKDECPCYRDKVTKDDKKKSKCP
B3: Ma04_p17200.1: LTP antimicrobial protein, Musa acuminata (protein, listed as Musa acuminata)
chain: ITCGQVTSALSSCISYATGKGPLSTACCSGVKSLNSAAKTTADRKTACTCIKSTVSRLSGAQAGAIAGIPGKCGVSIGYPISASTDCSKVK
B4: Ma04_p17240.1: LTP antimicrobial protein, Musa acuminata (protein, listed as Musa acuminata)
chain: ITCSQVYGDLISCVGYLQGGPIKQQCCSGIKSLIAAARTTQDRRTACGCIKTAAAGLSGIDYGRVSQLPGQCGISVSYKISPNVDCSKIN
B5: Ma04_p17190.1: LTP antimicrobial protein, Musa acuminata (protein, listed as Musa acuminata)
chain: B4 chain with Q41K
B6: Ma11_p18240.1: LTP antimicrobial protein, Musa acuminata (protein, listed as Musa acuminata)
chain: AIGCGQIISYLIPCLGYAQGTGPLTDGCCSGVRALNGAAQTTPDRQATCNCLKRSAAGVSGIQPGLIAGIPSKCGINVPYRISPSTDCSRVR
B7: Ma07_p21450.1: snakin antimicrobial protein, Musa acuminata (protein, listed as Musa acuminata)
chain: KDAFMEAGYAKAPVVAPVPAPPAPRIIKDTKECGDACKDRCKLHSRQNVCSRACITCCSVCKCVPPGTYGHTELCGKCYTDWKTHGNRTKCP
B8: Ma09_p13940.1: snakin antimicrobial protein, Musa acuminata (protein, listed as Musa acuminata)
chain: RKAVVEDEPPVSGGGDGKPPVPVIDCAGLCGVRCSRHSRPNLCKRACGTCCFRCKCVPPGTSGNREMCGACYTNMTTHGNRTKCP
B9: Ma04_p30830.1: LTP antimicrobial protein, Musa acuminata (protein, listed as Musa acuminata)
chain: ATCNPTELTPCAAAILKSSPPSSLCCSKLKSQAPCFCQYQKNPSLSRYISGGRKVAAACGVPVPSC
B10: Ma09_p27770.1: snakin antimicrobial protein, Musa acuminata (protein, listed as Musa acuminata)
chain: GSLKPSECNNKCDFRCSATSHKKPCLFFCKECCATCLCVPPGTYGNKEACPCYNNWKTKEGGPKCP
B11: Ma03_p07220.1: TLP antimicrobial protein, Musa acuminata (protein, listed as Musa acuminata)
chain: ATLALYNKCRETVWPGIQPSAGKAVLARGGFQLLPNQAYSLRLPAGWSGRVWGRRGCAFDPATGRGRCATGDCGGALYCNGLGGAPPATLAEFTLGQGRQQDFYDVSLVDGYNLGMSMTPFRGSGQCGRAGCVSDLNEVCPAGLAVRGGTDNRVVACKSACSAFGSPRYCCTGSFGGPQQCKPTAYSRLFKAACPRAYSYAYDDPTSILTCTGASYLVTFCPQH
B12: Ma06_p20150.1: snakin antimicrobial protein, Musa acuminata (protein, listed as Musa acuminata)
chain: EREINCEAKCSHRCSKASRHKMCMRACVDCCHKCHCVPPGTYGHKEECPCYAHMKTRHGKPKCP
B13: Ma09_p21930.1: LTP antimicrobial protein, Musa acuminata (protein, listed as Musa acuminata)
chain: VTCNPLELSPCSSAVLSGARPSAACCAKLKEQQPCFCQYKKNPSLKDYVNSDNGKKALKACGVPIPSC
B14: Ma10_p18110.1: snakin antimicrobial protein, Musa acuminata (protein, listed as Musa acuminata)
chain: GSAFCGSKCKVRCSKASVKDRCLKYCGLCCEQCRCVPSGTYGHKDECPCYRDKYTGSGKRRRPKCP
B15: Ma06_p00870.1: snakin antimicrobial protein, Musa acuminata (protein, listed as Musa acuminata)
chain: KDLPAEEFGVSLAEKGHKHKHSGFSEAECPGACQYRCSKTAYKKPCLFFCQKCCFKCRCVPPGTYAHKEVCPCYNNWKTKRGGPKCP

A word on the IC50: it is the midpoint of a concentration-inhibition curve.

Positions count from the first letter of the chain named. Bounds are passed on as bounds.

The test system of the experiment is Foc_TR4. Briefly: In vitro spore germination and mycelial growth assay. Format: cell-based, Fusarium oxysporum f.sp. cubense Tropical Race 4. The settings on record: Foc_TR4 spores, purified Pichia-secreted protein, low ionic strength media, 25° C., A595 at 48 hours; read-out: IC50 (μM, CE fraction).
As to “GB ID: RRT50697.1: defensin antimicrobial protein, Musa acuminata (RTCESASSRFKGTCVRSSNCASVCQGEGFPDGRCEGLRRRCMCRKPC; listed as Musa acuminata)”, the IC50 came out at 0.51 ± 0.01 µM. The result for “Ma02_p12840.1: defensin antimicrobial protein, Musa acuminata (RTCESQSHKFVGPCVRKANCGNVCQTEGFHGGVCRGSLIHRKCYCTKNC; listed as Musa acuminata)” reads 0.86 ± 0.07 µM; that for “Ma04_p36140.1: defensin antimicrobial protein, Musa acuminata (RTCESASTRFKGTCVRSSNCASVCQGEGFPDGKCEGVRRRCMCRKPC; listed as Musa acuminata)”, 0.84 ± 0.06 µM.

In the case of “Ma11_p12930.1: defensin antimicrobial protein, Musa acuminata (RVCRYASRSFRGLCFSDTNCAHVCQTEGFNGGHCHGLRRRCMCLRRGC; listed as Musa acuminata)”, the IC50 was 0.17 ± 0.006 µM. For “Mba02_g12080.1: defensin antimicrobial protein, Musa acuminata, without yeast signal peptide (RTCESQSHKFVGPCVREANCANVCHTEGFHGGVCRGTLIHRKCYCTKNC; listed as Musa acuminata)” the value was 6 ± 0.59 µM. For “Ma08_p13660.1: defensin antimicrobial protein, Musa acuminata (RKCESASHKFKGLCFRASNCANVCKTEGFHGGHCRGLRRRCFCTKHCNSAT; listed as Musa acuminata)” the value was more than 25 µM. For “Ma06_p21420.1: defensin antimicrobial protein, Musa acuminata (KICRLPSIGFRGPCTSDKNCAKVCRREGFDSGDCEGYTMGCLCNKHC; listed as Musa acuminata)” the value was 3 ± 0.17 µM; for B1, 0.52 ± 0.08 µM. As to B2, the IC50 came to 2.71 ± 0.53 µM. The result for B3 reads 2.09 ± 0.06 µM; that for B4, 1.92 ± 0.13 µM; that for B5, 3.47 ± 0.21 µM. On to B6, for which the IC50 was determined as 2.25 ± 0.16 µM. For B7 the value was 0.9 ± 0.05 µM; for B8, 0.38 ± 0.01 µM; for B9, 6.34 ± 0.23 µM.

For the molecule B10, the IC50 came out at 0.08 ± 0.003 µM. Regarding B11, the IC50 turned out to be 0.009 ± 0.0005 µM. The result for B12 reads 0.53 ± 0.01 µM; that for B13, 1.86 ± 0.08 µM; that for B14, 1.31 ± 0.03 µM. For B15 the value was more than 16 µM.

Source of the values: patent US20240141372A1, “TRANSGENIC BANANA PLANTS HAVING INCREASED RESISTANCE TO FUSARIUM OXYSPORUM TROPICAL RACE 4 AND METHODS OF PRODUCING SAME” (Elo Life Systems, priority 2022, published 2024).
